Experimental findings from the DeepSol protein solubility set are described below.

The series can be described thus: soluble on expression in E. coli; label from the status in PepcDB or PDB records.
In the case of “MEKYMSLLTRIEEMMQSTSYQEGDRLPSIRQLSARYQVSKSTVIRALQELEKRHLIYSVPKSGYYIVKKSGKSKSGQPGPIDFATSAPDPDVFPYLDFQHCINKAIDTYKNDLFIYGTPKGLPSLIRVLRKLLATQQVFADERHIFITSGVQQALSLLCAMPFPNGKEKIAIEQPGYHLMVEQLETLGIPAIGVKRTEEGLDIAKVERLFQTESIKFFYTMPRFHNPLGCSLSERDKQELVRLAEAYDVYLVEDDYLGDLEENKKADPLYAYDLSSHVIYLKSFSKMMFPGLRVGAAVLPEALTDTFYAYKKLNDIDCSMISQAALEIYLKSGMYGRHKEKIRDSYKERSLRLHQAIRTHRQLGSGRFTFSSGQAPCMHTHLVLPQDLPASRVIHRLEKQGVLLEAIDRHYLSDYPKENLLKINISNVKTEDIERGVKLLMSHL”, the “soluble on expression in E. coli” value is recorded as “not soluble”. With “MSLNKTNYNNIISINQQREFVLFQNIQKECPLLVVFDLDDTLIHTHINTNNLCINSSDIFTIRVNEIKYYCEVRKGVVETLERLSKQFRIMIYTASKKEYADQVVSHLEKNCKLFSKILYREDCLEEEGFIYKTIHNINYNVKRIICIDDNPSAWKKLENVYVCKKYNGGIDDEMIDIEKTFIKCCILCFLFVEGHHHHHH”, the “soluble on expression in E. coli” value is “soluble”. As for “MTVSTPEQHEQRASHDASEGKHNVCQGRLAALADAAVSEKLGALPGWQLLDMRLSRAFQCTNFDQSIDFMNRVASIANDINHHPDIAVLDKRSVRVTAWTRKLGYLTDIDFDLAASVEAMYATEFADRPAR”, the entry is “soluble”.

In the case of “MGSDKIHHHHHHMDINLRFFSRLNPWLNSLFTSKATLKTEIDEAQQGQMSLKTIANQYPLQARRGPITQVMLYQSLYASDDFVGREKQLNQITDVINQWRNHHGEISAIVSPAGSGGSSFLGQLPPLLQTIIADDAKKAPMPDVKPLPSKWLLMSFYQAPLGANGAIAHVCYCFGITPPNTITETIAAINQQPPQLIMIDDMHKLMLRMMGNNQALVTFATIVMETRKHHCWIMGCEIFAWQRLSAQYQIHHFIKHVFQLDYFSETELATIQTKHLLDLGLISNDVMAKETTTTPPNNTNKSTKEQTEQANIEQVDIVNPYKDQLKQLYTISQGHPKLASLLLQYSLAHQVDIGSDNSSNSRSNNGIDICRINSSVLQQCQDNDLFSVAEIYVHGGLRVSQHAHIFAITIEQSSLQLEYLARQGLIIAQYSQQDFAEHFYFITPTLSKIIANHLVNNNKLFN”, the “soluble on expression in E. coli” value is “not soluble”. As for “MRNVMKATTLESKFPLLAVENGCIVSKEADVTVAFRVELPELFSVTGSEYEAVHSAWHKAVKVLPEYSIVHKQDFFIEEKYRPETDRDDLSFLSRSFERHFNERPFLNHFCYLFLTKTTKARSRQESTFSTLCKGRLVPKEIEDRETVTRFLEAVGQFEKIMNDSGFVTLRRLTTDEITGTETAAGIVEKYLSLSQHDTTVLKDIQLNPEEMRIGDDILCLHTLSDTEDLPGKVATDSRYERLSTDRSDCRLSFAAPVGLLLDCNHCYNQYIFIDDHGENLKRFEQTARNMHSLSRYSRSNQINKAWIEEYLNEAHSKGLTSVRCHCNVMAWSDDREELRRIKNEVGSQLALMECKPRHNTVDVPTLFWAAIPGNEGDFPFEESFYTFIPQALCFFTEETNYKDSLSPFGIKMADRMTGRPLHLDISDLPMKKGVISNRNKFVLGPSGSGKSFFMNHLVRQYYEQNSHIVLIDTGNSYQGLCELIHRKTKGEDGIYYTYTEEKPISFNPFFTDDYKFSVEKKDSIKTLLLALWKGEDEKVTKTESGELGSAVSAYIRRIQQNRDIAPSFDTFYEYMLNDYRKELAARDIKVSREDFNIDNFLTTLRQYYKGGRYDFLLNSNENIDLLHKRFIVFEIDAVKDNAELFPVVTIIIMEAFINKLRRLKGVRKMLICEEAWKALSSPSMSEYLKYLYKTVRKYFGEAIVVTQEVDDIISSPIVKEAIITNSDCKILLDQKKYMNKFDGIQSMLGLTDKEKSQILSINLANHPGRKYKEVWIGLNGVQSAVYATEVSAAEYLTYTTEESEKTEVFALAEELGGDLELAIKRLAETKYK”, the entry is “not soluble”; as for “MAEVKKSNAPEFKGAETLYLIDIPQPDGKTTKTVRFFNQTSGSRSIEAGEIELKTKDKSGSDYGDVTQSASIEGICTEGDEGLDYVEEAILNKVLVRIHEVNLRSATASEFKVKSGTYMLNSLELSHENEEYSKYSIGLKLNGKISKGTLNKVPEGAPSGDVATPGTE”, “not soluble”. Turning to “MASETIHFSFANADVYIVARSPNNQNGTGDDTMSYSAKSFSALINAMRADGITRLEQLARQPFRNAQGFWSAEVKK”, the “soluble on expression in E. coli” value is “not soluble”.
